Laboratory results: the supplement of paper PMC5998384

How the values were obtained:
HeLa Kyoto [1] = assay: thermal stability score vs G1/S (z-score of summed log2 fold changes over temperatures); higher = more thermally stable than in G1/S
HeLa Kyoto [2] = assay: melting temperature (median over replicates), in situ; higher = more thermally stable
HeLa Kyoto [3] = assay: solubility change mitosis vs G1/S (difference of NP-40 vs SDS log2 ratios) (log2 ratio difference); higher = more soluble in mitosis
HeLa Kyoto [4] = assay: solubility in G1/S (NP-40 vs SDS abundance) (log2 ratio); higher = more soluble; settings: cell cycle stage: G1/S
[5] = cell cycle stage: early G1 (4.5 h after nocodazole release)
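For melting temperature (median over replicates), in situ in this document: HeLa Kyoto cells synchronized by double thymidine or nocodazole block, proteins quantified by TMT10plex mass spectrometry, three independent biological replicates.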
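For solubility change mitosis vs G1/S (difference of NP-40 vs SDS log2 ratios) in this document: synchronized HeLa Kyoto cells (double thymidine block for G1/S, nocodazole release for mitosis), protein amounts in NP-40 versus SDS lysates quantified by mass spectrometry, three biological replicates.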
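For solubility in G1/S (NP-40 vs SDS abundance) in this document: HeLa Kyoto cells arrested at G1/S by double thymidine block, proteins quantified by TMT10plex mass spectrometry in mild NP-40 versus SDS extracts, three biological replicates.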
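For thermal stability score vs G1/S (z-score of summed log2 fold changes over temperatures) in this document: synchronized HeLa Kyoto cells, proteins quantified by TMT10plex mass spectrometry, three biological replicates, mitosis taken 0.5 h after nocodazole release, G1/S directly after double thymidine block.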

| Sequence | thermal stability score (HeLa Kyoto [1]; [5]) | thermal stability score (HeLa Kyoto [1]; cell cycle stage: mitosis) | melting temperature (HeLa Kyoto [2]; cell cycle stage: G1/S) [°C] | melting temperature (HeLa Kyoto [2]; cell cycle stage: mitosis) [°C] | solubility change mitosis (log2) (HeLa Kyoto [3]) | solubility in G1/S (log2) (HeLa Kyoto [4]) |
| --- | --- | --- | --- | --- | --- | --- |
| MGRTVVVLGGGISGLAASYHLSRAPCPPKVVLVESSERLGGWIRSVRGPNGAIFELGPRGIRPAGALGARTLLLVSELGLDSEVLPVRGDHPAAQNRFLYVGGALHALPTGLRGLLRPSPPFSKPLFWAGLRELTKPRGKEPDETVHSFAQRRLGPEVASLAMDSLCRGVFAGNSRELSIRSCFPSLFQAEQTHRSILLGLLLGAGRTPQPDSALIRQALAERWSQWSLRGGLEMLPQALETHLTSRGVSVLRGQPVCGLSLQAEGRWKVSLRDSSLEADHVISAIPASVLSELLPAEAAPLARALSAITAVSVAVVNLQYQGAHLPVQGFGHLVPSSEDPGVLGIVYDSVAFPEQDGSPPGLRVTVMLGGSWLQTLEASGCVLSQELFQQRAQEAAATQLGLKEMPSHCLVHLHKNCIPQYTLGHWQKLESARQFLTAHRLPLTLAGASYEGVAVNDCIESGRQAAVSVLGTEPNS [PPOX] | 0.0829 | -0.0946 | 53.3 | 54 | -0.0988 | 0.0337 |
| MGSKGVYQYHWQSHNVKHSGVDDMVLLSKITENSIVENLKKRYMDDYIFTYIGSVLISVNPFKQMPYFGEKEIEMYQGAAQYENPPHIYALADNMYRNMIIDRENQCVIISGESGAGKTVAAKYIMSYISRVSGGGTKVQHVKDIILQSNPLLEAFGNAKTVRNNNSSRFGKYFEIQFSPGGEPDGGKISNFLLEKSRVVMRNPGERSFHIFYQLIEGASAEQKHSLGITSMDYYYYLSLSGSYKVDDIDDRREFQETLHAMNVIGIFAEEQTLVLQIVAGILHLGNISFKEVGNYAAVESEEFLAFPAYLLGINQDRLKEKLTSRQMDSKWGGKSESIHVTLNVEQACYTRDALAKALHARVFDFLVDSINKAMEKDHEEYNIGVLDIYGFEIFQKNGFEQFCINFVNEKLQQIFIELTLKAEQEEYVQEGIRWTPIEYFNNKIVCDLIENKVNPPGIMSILDDVCATMHAVGEGADQTLLQKLQMQIGSHEHFNSWNQGFIIHHYAGKVSYDMDGFCERNRDVLFMDLIELMQSSELPFIKSLFPENLQADKKGRPTTAGSKIKKQANDLVSTLMKCTPHYIRCIKPNETKKPRDWEESRVKHQVEYLGLKENIRVRRAGYAYRRIFQKFLQRYAILTKATWPSWQGEEKQGVLHLLQSVNMDSDQFQLGRSKVFIKAPESLFLLEEMRERKYDGYARVIQKSWRKFVARKKYVQMREEASDLLLNKKERRRNSINRNFIGDYIGMEEHPELQQFVGKREKIDFADTVTKYDRRFKGVKRDLLLTPKCLYLIGREKVKQGPDKGLVKEVLKRKIEIERILSVSLSTMQDDIFILHEQEYDSLLESVFKTEFLSLLAKRYEEKTQKQLPLKFSNTLELKLKKENWGPWSAGGSRQVQFHQGFGDLAVLKPSNKVLQVSIGPGLPKNSRPTRRNTTQNTGYSSGTQNANYPVRAAPPPPGYHQNGVIRNQYVPYPHAPGSQRSNQKSLYTSMARPPLPRQQSTSSDRVSQTPESLDFLKVPDQGAAGVRRQTTSRPPPAGGRPKPQPKPKPQVPQCKALYAYDAQDTDELSFNANDIIDIIKEDPSGWWTGRLRGKQGLFPNNYVTKI [MYO1E] | -0.0451 | 1.13 | 49.6 | 49.5 | -0.207 | -0.131 |
| MGSRASTLLRDEELEEIKKETGFSHSQITRLYSRFTSLDKGENGTLSREDFQRIPELAINPLGDRIINAFFPEGEDQVNFRGFMRTLAHFRPIEDNEKSKDVNGPEPLNSRSNKLHFAFRLYDLDKDEKISRDELLQVLRMMVGVNISDEQLGSIADRTIQEADQDGDSAISFTEFVKVLEKVDVEQKMSIRFLH [CHP1] | -0.997 | 0.839 | 51.8 | 52.6 | -0.016 | 0.256 |
| MGSRDHLFKVLVVGDAAVGKTSLVQRYSQDSFSKHYKSTVGVDFALKVLQWSDYEIVRLQLWDIAGQERFTSMTRLYYRDASACVIMFDVTNATTFSNSQRWKQDLDSKLTLPNGEPVPCLLLANKCDLSPWAVSRDQIDRFSKENGFTGWTETSVKENKNINEAMRVLIEKMMRNSTEDIMSLSTQGDYINLQTKSSSWSCC [RAB29] | -0.342 | -0.372 | 53 | 52.9 | -0.119 | 0.0397 |
| MGSSKKHRGEKEAAGTTAAAGTGGATEQPPRHREHKKHKHRSGGSGGSGGERRKRSRERGGERGSGRRGAEAEARSSTHGRERSQAEPSERRVKREKRDDGYEAAASSKTSSGDASSLSIEETNKLRAKLGLKPLEVNAIKKEAGTKEEPVTADVINPMALRQREELREKLAAAKEKRLLNQKLGKIKTLGEDDPWLDDTAAWIERSRQLQKEKDLAEKRAKLLEEMDQEFGVSTLVEEEFGQRRQDLYSARDLQGLTVEHAIDSFREGETMILTLKDKGVLQEEEDVLVNVNLVDKERAEKNVELRKKKPDYLPYAEDESVDDLAQQKPRSILSKYDEELEGERPHSFRLEQGGTADGLRERELEEIRAKLRLQAQSLSTVGPRLASEYLTPEEMVTFKKTKRRVKKIRKKEKEVVVRADDLLPLGDQTQDGDFGSRLRGRGRRRVSEVEEEKEPVPQPLPSDDTRVENMDISDEEEGGAPPPGSPQVLEEDEAELELQKQLEKGRRLRQLQQLQQLRDSGEKVVEIVKKLESRQRGWEEDEDPERKGAIVFNATSEFCRTLGEIPTYGLAGNREEQEELMDFERDEERSANGGSESDGEENIGWSTVNLDEEKQQQDFSASSTTILDEEPIVNRGLAAALLLCQNKGLLETTVQKVARVKAPNKSLPSAVYCIEDKMAIDDKYSRREEYRGFTQDFKEKDGYKPDVKIEYVDETGRKLTPKEAFRQLSHRFHGKGSGKMKTERRMKKLDEEALLKKMSSSDTPLGTVALLQEKQKAQKTPYIVLSGSGKSMNANTITK [SART1] | 0.893 | 3.51 | 50.8 | 51.6 | 0.448 | -0.654 |
| MGSSKKVTLSVLSREQSEGVGARVRRSIGRPELKNLDPFLLFDEFKGGRPGGFPDHPHRGFETVSYLLEGGSMAHEDFCGHTGKMNPGDLQWMTAGRGILHAEMPCSEEPAHGLQLWVNLRSSEKMVEPQYQELKSEEIPKPSKDGVTVAVISGEALGIKSKVYTRTPTLYLDFKLDPGAKHSQPIPKGWTSFIYTISGDVYIGPDDAQQKIEPHHTAVLGEGDSVQVENKDPKRSHFVLIAGEPLREPVIQHGPFVMNTNEEISQAILDFRNAKNGFERAKTWKSKIGN [PIR] | -1.49 | -1.89 | 51.8 | 51.6 | -0.0437 | 0.288 |
